The target in this assay is HLA-A*02:01 (Homo sapiens, UniProt P04439, D140Y/D185E/D98H/E176V/E277Q/G131W/G231S/I119V/I121R/I166T/I218V/L300P/L318F/N151K/N90K/P208A/P217A/Q86G/Q94H/R138H/R169H/T345S). Briefly: MHC binding assay (UV-ligand exchange, beta2m ELISA, peptide exchange yield). The following applies: binding to HLA-A*02:01 ranged by peptide exchange yield, β2m ELISA. An excerpt: Candidate peptides for T cell based therapies according to the present invention were further tested for their MHC binding capacity (affinity). The individual peptide-MHC complexes were produced by UV-ligand exchange, where a UV-sensitive peptide is cleaved upon UV-irradiation, and exchanged with the peptide of interest as analyzed. Only peptide candidates that can effectively bind and stabilize the peptide-receptive MHC molecules prevent dissociation of the MHC complexes. To determine the yield of the exchange reaction, an ELISA was performed based on the detection of the light chain (β2m) of stabilized MHC complexes. The assay was performed as generally described in Rodenko et al. (Rodenko et al., 2006).
96 well MAXISorp plates (NUNC) were coated over night with 2 ug/ml streptavidin in PBS at room temperature, washed 4× and blocked for 1 h at 37° C. in 2% BSA containing blocking buffer. Refolded HLA-A*02:01/MLA-001 monomers served as standards, covering the range of 15-500 ng/ml. Peptide-MHC monomers of the UV-exchange reaction were diluted 100 fold in blocking buffer. Samples were incubated for 1 h at 37° C., washed four times, incubated with 2 ug/ml HRP conjugated anti-μ2m for 1h at 37° C., washed again and detected with TMB solution that is stopped with […]. Absorption was measured at 450 nm. Candidate peptides that show a high exchange yield (preferably higher than 50%, most preferred higher than 75%) are generally preferred for a generation and production of antibodies or fragments thereof, and/or T cell receptors or fragments thereof, as they show sufficient avidity to the MHC molecules and prevent dissociation of the MHC complexes.
MHC class I binding scores. Binding of HLA-class I restricted peptides to HLA-A*02:01 was ranged by peptide exchange yield: ≥10%=+; ≥20%=++; ≥50=+++; >75%=++++
Turning to “1 (FVDTRTLL; listed as Homo sapiens) [compound 1]”, the “Peptide exchange (MHC class I binding score)” value (from here on “Peptide exchange”) is ““++” (≥20%=++)”. The same measure for “2 (FGYDGDFYRA; listed as Homo sapiens) [compound 2]”: ““+++” (≥50=+++)”; for “3 (ILIGETIKI; listed as Homo sapiens) [compound 3]”: ““+++” (≥50=+++)”; for “4 (ALDPAAQAFLL; listed as Homo sapiens) [compound 4]”: ““+++” (≥50=+++)”.

With “5 (ALLTGIISKA; listed as Homo sapiens) [compound 5]”, the “Peptide exchange” value is recorded as ““+++” (≥50=+++)”. The same measure for “6 (ALTGIPLPLI; listed as Homo sapiens) [compound 6]”: ““+++” (≥50=+++)”. Turning to “7 (ALVDIVRSL; listed as Homo sapiens) [compound 7]”, the “Peptide exchange” value is ““+++” (≥50=+++)”. Regarding “8 (ALYTGSALDFV; listed as Homo sapiens) [compound 8]”, the “Peptide exchange” value is recorded as ““+++” (≥50=+++)”. The same measure for “9 (QIIDAINKV; listed as Homo sapiens) [compound 9]”: ““++” (≥20%=++)”.

“10 (VLLDKIKNL; listed as Homo sapiens) [compound 10]”: the “Peptide exchange” value is ““++” (≥20%=++)”. The same measure for “11 (ALYYNPHLL; listed as Homo sapiens) [compound 11]”: ““++” (≥20%=++)”; for “12 (AQYKFVYQV; listed as Homo sapiens) [compound 12]”: ““+++” (≥50=+++)”. In the case of “13 (FIDSSNPGL; listed as Homo sapiens) [compound 13]”, the “Peptide exchange” value is on record as ““++” (≥20%=++)”. Take “14 (FIIDNPQDLKV; listed as Homo sapiens) [compound 14]”: the “Peptide exchange” value is reported as ““+++” (≥50=+++)”. Turning to “15 (FILANEHNV; listed as Homo sapiens) [compound 15]”, the “Peptide exchange” value is listed as ““+++” (≥50=+++)”. In the case of “16 (GLIDYDTGI; listed as Homo sapiens) [compound 16]”, the “Peptide exchange” value was ““+++” (≥50=+++)”. The same measure for “17 (GLIDYDTGIRL; listed as Homo sapiens) [compound 17]”: ““+++” (≥50=+++)”; for “18 (ALFVRLLAL; listed as Homo sapiens) [compound 18]”: ““++” (≥20%=++)”. The same measure for “19 (ALWHDAENQTVV; listed as Homo sapiens) [compound 19]”: ““+++” (≥50=+++)”; for “20 (GLIDIENPNRV; listed as Homo sapiens) [compound 20]”: ““+++” (≥50=+++)”; for “21 (GLVDGRDLVIV; listed as Homo sapiens) [compound 21]”: ““+++” (≥50=+++)”. The same measure for “22 (ILSTEIFGV; listed as Homo sapiens) [compound 22]”: ““+++” (≥50=+++)”; for “23 (KLDSSGGAVQL; listed as Homo sapiens) [compound 23]”: ““++” (≥20%=++)”; for “24 (KLSENAGIQSL; listed as Homo sapiens) [compound 24]”: ““++” (≥20%=++)”. With “25 (LINPNIATV; listed as Homo sapiens) [compound 25]”, the “Peptide exchange” value is given as ““++” (≥20%=++)”.

Consider “26 (SLYTALTEA; listed as Homo sapiens) [compound 26]”, for which the “Peptide exchange” value is on record as ““+++” (≥50=+++)”. The same measure for “27 (TLLAHPVTL; listed as Homo sapiens) [compound 27]”: ““+++” (≥50=+++)”. The same measure for “28 (VLDEFYSSL; listed as Homo sapiens) [compound 28]”: ““+++” (≥50=+++)”; for “29 (YILPFSEVL; listed as Homo sapiens) [compound 29]”: ““++++” (>75%=++++)”. The same measure for “30 (YIYKDTIQV; listed as Homo sapiens) [compound 30]”: ““++” (≥20%=++)”. As to “31 (YLDSMYIML; listed as Homo sapiens) [compound 31]”, the “Peptide exchange” value is ““+++” (≥50=+++)”. With “32 (YVDDGLISL; listed as Homo sapiens) [compound 32]”, the “Peptide exchange” value is ““++” (≥20%=++)”.

Consider “34 (FLEDDDIAAV; listed as Homo sapiens) [compound 34]”, for which the “Peptide exchange” value was ““++” (≥20%=++)”. The same measure for “35 (FLFPSQYVDV; listed as Homo sapiens) [compound 35]”: ““+++” (≥50=+++)”. For “36 (FLGDLSHLL; listed as Homo sapiens) [compound 36]”, the “Peptide exchange” value is reported as ““++” (≥20%=++)”. As for “37 (FLNPDEVHAI; listed as Homo sapiens) [compound 37]”, the “Peptide exchange” value was ““++” (≥20%=++)”. The same measure for “38 (FLTEAALGDA; listed as Homo sapiens) [compound 38]”: ““+++” (≥50=+++)”; for “39 (FLTPSIFII; listed as Homo sapiens) [compound 39]”: ““++” (≥20%=++)”. As for “40 (GLAPQIHDL; listed as Homo sapiens) [compound 40]”, the “Peptide exchange” value is recorded as ““++” (≥20%=++)”. “41 (GLLAGNEKLTM; listed as Homo sapiens) [compound 41]”: the “Peptide exchange” value is on record as ““++” (≥20%=++)”.

“42 (ILSDMRSQYEV; listed as Homo sapiens) [compound 42]”: the “Peptide exchange” value is given as ““+++” (≥50=+++)”. The same measure for “43 (HLGVKVFSV; listed as Homo sapiens) [compound 43]”: ““++” (≥20%=++)”; for “44 (ILAQVGFSV; listed as Homo sapiens) [compound 44]”: ““+++” (≥50=+++)”; for “45 (ILYSDDGQKWTV; listed as Homo sapiens) [compound 45]”: ““+++” (≥50=+++)”. The same measure for “46 (TMVEHNYYV; listed as Homo sapiens) [compound 46]”: ““+++” (≥50=+++)”; for “47 (LIYKDLVSV; listed as Homo sapiens) [compound 47]”: ““+++” (≥50=+++)”; for “48 (LLDENGVLKL; listed as Homo sapiens) [compound 48]”: ““+++” (≥50=+++)”.

Take “49 (LLDGFPRTV; listed as Homo sapiens) [compound 49]”: the “Peptide exchange” value was ““++” (≥20%=++)”.

Regarding “50 (LLFGSDGYYV; listed as Homo sapiens) [compound 50]”, the “Peptide exchange” value is given as ““+++” (≥50=+++)”. The same measure for “51 (LLGPAGARA; listed as Homo sapiens) [compound 51]”: ““++” (≥20%=++)”; for “52 (LLSDPIPEV; listed as Homo sapiens) [compound 52]”: ““+++” (≥50=+++)”.

The values are drawn from patent US11485769B2, “Peptides and combination of peptides for use in immunotherapy and methods for generating scaffolds for the use against pancreatic cancer and other cancers” (Immatics Biotechnologies GmbH, priority 2015, dated 2022).
